Laboratory results from the supplement of paper PMC9112550, “Optimization of the antimicrobial peptide Bac7 by deep mutational scanning” (BMC Biology, 2022).

Test system: Escherichia coli TOP10
Assay: shrunken log2 fold change of peptide-encoding DNA abundance (4.5 h post-induction vs induction); higher = less antimicrobial activity (less host growth inhibition)
Details: time post-induction: 4.5 h; library: site-saturation at positions 5, 18, 19, 20
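Also: peptides expressed intracellularly from a pBAD plasmid library in pooled LB shake-flask culture, induced with 0.3% L-arabinose, DNA abundance read by NGS, three biological replicates, DESeq2 with apeglm shrinkage.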

| Sequence | shrunken log2 fold change |
| --- | --- |
| RRIRTRPPRLPRPRPRPNMNPRP | -0.864 |
| RRIRGRPPRLPRPRPRPFRAPRP | 0.209 |
| RRIRIRPPRLPRPRPRPDQLPRP | -0.172 |
| RRIRIRPPRLPRPRPRPRHGPRP | -0.136 |
| RRIRERPPRLPRPRPRPLEPPRP | 0.0736 |
| RRIRIRPPRLPRPRPRPCLVPRP | -0.687 |
| RRIRTRPPRLPRPRPRPPIPPRP | 0.128 |
| RRIRGRPPRLPRPRPRPKYMPRP | 0.104 |
| RRIRMRPPRLPRPRPRPTEDPRP | 1.9 |
| RRIRERPPRLPRPRPRPKQFPRP | -0.0933 |
| RRIRIRPPRLPRPRPRPSFMPRP | -0.871 |
| RRIRWRPPRLPRPRPRPQVFPRP | -0.0323 |
| RRIRWRPPRLPRPRPRPGSQPRP | 0.584 |
| RRIRSRPPRLPRPRPRPGTQPRP | 0.00256 |
| RRIRVRPPRLPRPRPRPHSKPRP | -0.496 |
| RRIRPRPPRLPRPRPRPGECPRP | 0.739 |
| RRIRYRPPRLPRPRPRPVLIPRP | -0.00211 |
| RRIRTRPPRLPRPRPRPIDYPRP | -0.231 |
| RRIRKRPPRLPRPRPRPWPWPRP | 0.847 |
| RRIRDRPPRLPRPRPRPENFPRP | 0.043 |
| RRIRTRPPRLPRPRPRPDEEPRP | 0.0173 |
| RRIRKRPPRLPRPRPRPSHCPRP | -0.578 |
| RRIRSRPPRLPRPRPRPHHWPRP | -0.221 |
| RRIRHRPPRLPRPRPRPGVYPRP | -0.138 |
| RRIRFRPPRLPRPRPRPTIVPRP | 0.0438 |

| Sequence | shrunken log2 fold change |
| --- | --- |
| RRIRMRPPRLPRPRPRPNHCPRP | 0.0039 |
| RRIRIRPPRLPRPRPRPDMDPRP | -0.122 |
| RRIRGRPPRLPRPRPRPNNGPRP | -0.363 |
| RRIRLRPPRLPRPRPRPGPWPRP | 0.325 |
| RRIRCRPPRLPRPRPRPTQGPRP | 0.954 |
| RRIRCRPPRLPRPRPRPKFCPRP | -0.0358 |
| RRIRMRPPRLPRPRPRPVWVPRP | 0.0789 |
| RRIRRRPPRLPRPRPRPFFTPRP | 0.501 |
| RRIRNRPPRLPRPRPRPLIMPRP | -0.48 |
| RRIRSRPPRLPRPRPRPWIHPRP | -0.338 |
| RRIRGRPPRLPRPRPRPILDPRP | 0.277 |
| RRIRRRPPRLPRPRPRPMSEPRP | 0.0166 |
| RRIRIRPPRLPRPRPRPYDYPRP | -0.0343 |
| RRIRWRPPRLPRPRPRPQCDPRP | 0.462 |
| RRIRHRPPRLPRPRPRPLGCPRP | 0.116 |
| RRIRSRPPRLPRPRPRPFRYPRP | -0.822 |
| RRIRVRPPRLPRPRPRPVDTPRP | -0.18 |
| RRIRDRPPRLPRPRPRPANTPRP | -0.0443 |
| RRIRWRPPRLPRPRPRPWAPPRP | 0.479 |
| RRIRQRPPRLPRPRPRPVWEPRP | 0.0571 |
| RRIRKRPPRLPRPRPRPMQPPRP | 0.288 |
| RRIRKRPPRLPRPRPRPMFLPRP | -0.0587 |
| RRIRNRPPRLPRPRPRPRPVPRP | 0.303 |
| RRIRDRPPRLPRPRPRPVGKPRP | 0.0278 |
| RRIRIRPPRLPRPRPRPKEGPRP | 0.00692 |
